Experimental data taken from US20160040149A1, “Compositions Having Dicamba Decarboxylase Activity and Methods of Use” (priority 2013, published 2016).

B1: 371 (protein)
chain: MAQGKVALEEHFAIPETLQDSAGFVPGDYWKELQHRLLDIQDTRLRLMDAHGIETMILSLAAPAVQAIPDRRKAIEIARRANDFLAEECAKRPDRFLAFAALPLQDPDAATEELQRTVNDLGFVGALVNGFSQEGDGQTPLYYDLPQYRPFWGEVEKLDVPFYLHPRNPLPQDSRIYDGHPWLLGPTWAFAQETAVHALRLMASGLFDEHPRLNIILGHLGEGLPYMMYRIDHRIAWVKLPPRYPAKRRFMDYFLENFHITTSGNFRTQTLIDAILEIGADRILFSTDWPFENIDHAADWFNATSIAEADRLKIGRTNARRLFKLDGR
modifications: Dicamba decarboxylase variant
B2: 372 (protein)
chain: MAQGKVALEEHFAIPETLQDSAGFVPGDYWKELQHRLLDIQDTRLKLMDAHGIETMILSLAAPAVQAIPDRRKAIEIARRANDMLAEECAKRPDRFLAFAALPLQDPDAATEELQRCVNDLGFVGALVNGFSVEGDGQTPLYYDLPQYRPFWGEVEKLDVPFYLHPRNPLPQDSRIYDGHPWLLGPTWAFAQETAVHALRLMASGLFDEHPRLNIILGHLGEGLPYMMYRIDHRIAWVHEPPRYPAKRRFMDYFNENFHITTSGNFRTQTLIDAILEIGADRILFSTDWPFENIDHAADWFNATSIAEADRVKIGRTNARRLFKLDLD
modifications: Dicamba decarboxylase variant
B3: 376 (protein)
chain: MAQGKVALEEHFAIPETLQDSAGFVPGDYWKELQHRLLDIQDTRLKLMDAHGIETMILSLAAPAVQAIPDRRKAIEIARRANDFLAEECAKRPDRFLAFAALPLQDPDAATEELQRTVNDLGFVGALVNGFSQEGDGQTPLYYDLPQYRPFWGEVEKLDVPFYLHPRNPLPQDSRIYDGHPWLLGPTWAFAQETAVHALRLMASGLFDEHPRLNIILGHMGEGLPYMMYRIDHRIAWVKLPPRYPAKRRFMDYFNENFHITTSGNFRTQTLIDAILEIGADRILFSTDWPFENIDHATDWFNATSIAEADRVKIGRTNARRLFKLDGA
modifications: Dicamba decarboxylase variant
B4: 374 (protein)
chain: MAQGKVALEEHFAIPETLQDSAGFVPGDYWKELQHRLLDIQDTRLKLMDAHGIETMILSLAAPAVQAIPDRRKAIEIARRANDFLAEECAKRPDRFLAFAALPLQDPDAATEELQRCVNDLGFVGALVNGFSVEGDGQTPLYYDLPQYRPFWGEVEKLDVPFYLHPRNPLPQDSRIYDGHPWLLGPTWAFAQETAVHALRLMASGLFDEHPRLNIILGHMGEGLPYMMYRIDHRIAWVHEPPRYPAKRRFMDYFNENFHITTSGNFRTQTLIDAILEIGADRILFSTDWPFENIDHATDWFNATSIAEADRVKIGRTNARRLFKLDGD
modifications: Dicamba decarboxylase variant
B5: 373 (protein)
chain: MAQGKVALEEHFAIPETLQDSAGFVPGDYWKELQHRLLDIQDTRLKLMDAHGIETMILSLAAPAVQAIPDRRKAIEIARRANDFLAEECAKRPDRFLAFAALPLQDPDAATEELQRCVNDLGFVGALVNGFSVEGDGQTPLYYDLPQYRPFWGEVEKLDVPFYLHPRNPLPQDSRIYDGHPWLLGPTWAFAQETAVHALRLMASGLFDEHPRLNIILGHMGEGLPYMMYRIDHRIAWVKLPPRYPAKRRFMDYFNENFHITTSGNFRTQTLIDAILEIGADRILFSTDWPFENIDHAADWFNATSIAEADRLKIGRTNARRLFKLDGD
modifications: Dicamba decarboxylase variant
B6: 375 (protein)
chain: MAQGKVALEEHFAIPETLQDSAGFAPGDYWKELQHRLLDIQDTRLKLMDAHGIETMILSLAAPAVQAIPDRRKAIEIARRANDFLAEECAKRPDRFLAFAALPLQDPDAATEELQRCVNDLGFVGALVNGFSQEGDGQTPLYYDLPQYRPFWGEVEKLDVPFYLHPRNPLPQDSRIYDGHPWLLGPTWAFAQETAVHALRLMASGLFDEHPRLNIILGHLGEGLPYMMYRIDHRIAWVHEPPRYPAKRRFMDYFNENFHITTSGNFRTQTLIDAILEIGADRILFSTDWPFENIDHAADWFNATSIAEADRVKIGRTNARRLFKLDGD
modifications: Dicamba decarboxylase variant

assay: DNA shuffling libraries: 14CO2 capturing assay in 384-well format, fold activity of backbone (Megatable 2); details: relative to backbone SEQ ID NO: 133 (DDEC0201)

Q: Which “Fold Activity” value does the source give for B1 here?
A: 0.9 fold

Q: Which “Fold Activity” value does the source give for B2 here?
A: 1.1 fold

Q: With B3 as the molecule, how does the “Fold Activity” value read?
A: 1.3 fold

Q: Which “Fold Activity” value does the source give for B4 here?
A: 1.3 fold

Q: Which “Fold Activity” value does the source give for B5 here?
A: 1.2 fold

Q: Which “Fold Activity” value does the source give for B6 here?
A: 0.9 fold
